Test results from patent US20180186873A1.

Tests used:
[1] = target: recombinant human IL-5 (human) (UniProt P05113); assay: cell-based or functional assay
[2] = target: cynomolgus monkey IL-5 (cynomolgus monkey); assay: cell-based or functional assay

IC50, inhibition of IL-5 driven proliferation of TF-1.6G4 cells (Mean, pM) [1]: 534 pM
IC50, inhibition of IL-5 driven proliferation of TF-1.6G4 cells (Mean, pM) [2]: 584 pM
Substance: Mepolizumab (antibody)
